The first experiment has as its target growth factor receptors. Kind of experiment: cell-based or functional assay.
Settings: not given
For the molecule NDEGLESVPTEERSVKVAKV [GFR-binding compound of SEQ ID NO: 91], the p-Smad1/5/8 (%) is 55%.

Consider GIPEPSSVPQKMEPLPIVYY [GFR-binding compound of SEQ ID NO: 75], for which the p-Smad1/5/8 (%) is 51%.

For TKPTSTPTKLSPINMLYF [GFR-binding compound of SEQ ID NO: 65], the p-Smad1/5/8 (%) came out at 36%.

Take NDEGLESVPTEESSLSILFF [GFR-binding compound of SEQ ID NO: 80]: the p-Smad1/5/8 (%) stood at 27%.

In the case of SSVKSQPSRVHHKPLSMLYV [GFR-binding compound of SEQ ID NO: 72], the p-Smad1/5/8 (%) worked out at 47%.

For the molecule ASAAPSSVPQALEPLTILYY [GFR-binding compound of SEQ ID NO: 77], the p-Smad1/5/8 (%) was found to be 55%.

VPTGQSAISMLYL [GFR-binding compound of SEQ ID NO: 95]: the p-Smad1/5/8 (%) worked out at 52%.

Turning to SSVKSQPSRVHHSPISILFI [GFR-binding compound of SEQ ID NO: 97], the p-Smad1/5/8 (%) came out at 39%.

RVPSTSSAPTKTSATSVLYY [GFR-binding compound of SEQ ID NO: 81] gave a p-Smad1/5/8 (%) of 34%.

Regarding RNVQSRPTQVQLSPISILFI [GFR-binding compound of SEQ ID NO: 98], the p-Smad1/5/8 (%) is 34%.

In turn, KIPKASSVPTELSPISVLYK [GFR-binding compound of SEQ ID NO: 87] gave a p-Smad1/5/8 (%) of 32%.

As for ASASPSSVSQDLSSLSILFF [GFR-binding compound of SEQ ID NO: 68], the p-Smad1/5/8 (%) was found to be 40%.

YVPKPSSAPTKLNAISVLYF [GFR-binding compound of SEQ ID NO: 99] gave a p-Smad1/5/8 (%) of 66%.

As to HVPKPSSAPTKLEPISILYL [GFR-binding compound of SEQ ID NO: 100], the p-Smad1/5/8 (%) came to 75%.

RNVQSRPTQVQLKPLSMLYV [GFR-binding compound of SEQ ID NO: 73] showed a p-Smad1/5/8 (%) of 48%.

Consider KASKASSVPQKLEPLPIVYY [GFR-binding compound of SEQ ID NO: 85], for which the p-Smad1/5/8 (%) stood at 22%.

As for KIPKASSVPQELEPLPIVYY [GFR-binding compound of SEQ ID NO: 74], the p-Smad1/5/8 (%) turned out to be 44%.

On to KVGKASSVPQKLEPLPIVYY [GFR-binding compound of SEQ ID NO: 84], for which the p-Smad1/5/8 (%) came out at 33%.

ASAAPSSVPQALRSVKVAKV [GFR-binding compound of SEQ ID NO: 88] registered a p-Smad1/5/8 (%) of 37%.

With RNVQSRPVPTQLSPISVLYK [GFR-binding compound of SEQ ID NO: 86], the p-Smad1/5/8 (%) was 26%.

ASASPSSVPQDLRSVKVAKV [GFR-binding compound of SEQ ID NO: 90]: the p-Smad1/5/8 (%) stood at 56%.

Molecule NDEGLESVPTEESAISMLYL [GFR-binding compound of SEQ ID NO: 96] had a p-Smad1/5/8 (%) of 78%.

In the case of TQVKMRPVQVRKI [GFR-binding compound of SEQ ID NO: 92], the p-Smad1/5/8 (%) worked out at 44%.

Turning to NDEGLESVPTEEEPLTILYY [GFR-binding compound of SEQ ID NO: 79], the p-Smad1/5/8 (%) turned out to be 58%.

GIPEPSSTPTKMSPINMLYF [GFR-binding compound of SEQ ID NO: 94] had a p-Smad1/5/8 (%) of 39%.

Take KVGKASSVPTKLEPISILYL [GFR-binding compound of SEQ ID NO: 71]: the p-Smad1/5/8 (%) was 66%.

Take VVPKPSSAPTQLEPISILYL [GFR-binding compound of SEQ ID NO: 69]: the p-Smad1/5/8 (%) turned out to be 39%.

For VSQDLRSVKVAKV [GFR-binding compound of SEQ ID NO: 89], the p-Smad1/5/8 (%) was 36%.

Molecule ASAAPSSAPTALSATSVLYY [GFR-binding compound of SEQ ID NO: 82] displayed a p-Smad1/5/8 (%) of 41%.

Take ASASPSSVSQDLEPLTILYY [GFR-binding compound of SEQ ID NO: 78]: the p-Smad1/5/8 (%) stood at 52%.

KIPKASSTPTELSPINMLYF [GFR-binding compound of SEQ ID NO: 93] displayed a p-Smad1/5/8 (%) of 47%.

In the case of AVPKASSAPTKLEPISILYL [GFR-binding compound of SEQ ID NO: 70], the p-Smad1/5/8 (%) is 67%.

Molecule SIPKASSTPTELSPINMLYF [GFR-binding compound of SEQ ID NO: 64] returned a p-Smad1/5/8 (%) of 37%.

Molecule SIPKASSVPQELEPLPIVYY [GFR-binding compound of SEQ ID NO: 76] showed a p-Smad1/5/8 (%) of 54%.

In turn, TVPKPSSAPTQLRSVKVAKV [GFR-binding compound of SEQ ID NO: 83] displayed a p-Smad1/5/8 (%) of 35%.

A further experiment relates to human osteosarcoma cells, MG63. Kind of experiment: Tumor cell recoding via quantification of pRB and p53 (immunofluorescence staining, ImageJ). The experiment is classed as cell-based. The conditions noted are these: Table 6; peptide in association with PET; MG63 cells. The procedure:
The cells were first fixed for 20 min with 4% paraformaldehyde/PBS at 4° C. After fixation, the cells were permeabilized in PBS containing 1% Triton X-100 for 15 min. Protein immunofluorescent visualization was performed by first treating the cells with 1% (v/v) specific monoclonal antibodies for 1 hour at 37° C. Then the samples were incubated with Alexa Fluor® 568 or 647 (F(ab′)2 fragment of IgG(H+L)) during 30 min at room temperature. The cell nuclei were counterstained in 20 ng/mL DAPI for 10 min at room temperature.
For this type of quantification the freeware image analysis ImageJ® software was used. The raw image was first converted to an 8-bit file, and then the unsharp mask feature was used (settings 1:0.2) to remove the image background (rolling ball radius 10). After smoothing, the resulting image, which appears similar to the original photomicrograph but with minimal background, was then converted to a binary image by setting a threshold. Threshold values were determined empirically by selecting a setting, which gave the most accurate binary image for a subset of randomly selected photomicrographs. The cell area was determined by manual delineation on raw fluorescent images. Total contact area and mean contact area per cell were calculated by “analyse particules” in ImageJ®. A minimum of 50 cells per condition were analyzed.
Neoplastic cells (in this example osteosarcoma cells) were cultured on pharmaceutical associations comprising PET as a bioactive carrier and one of GFR-binding compounds of SEQ ID NO: 11 to 14, 24 to 26 and 51 to 63. A rapid (24 hours) decrease of the tumor markers was observed (FIG. 7). The adhesion checkpoint then activates the tumor suppressor proteins p53 and pRB. […]
Turning to “STPPTSSVPTELSPISTLYK (Non-cyclic GFR-binding peptide) [SEQ ID NO: 205]”, the “P53 (%)” value was determined as 41% and the “pRB (%)” value worked out at 20%.

With “NDEGLESVPEDLSSLSVLFF (Non-cyclic GFR-binding peptide) [SEQ ID NO: 201]”, the “P53 (%)” value is on record as 29% and the “pRB (%)” value came to 12%.

With “KIPKASSVSQKMEPLTMLYY (Non-cyclic GFR-binding peptide) [SEQ ID NO: 208]”, the “P53 (%)” value worked out at 30% and the “pRB (%)” value was 12%.

On to “KIPKASSVPTGGSNITVQIM (Non-cyclic GFR-binding peptide) [SEQ ID NO: 209]”, for which the “P53 (%)” value was 45% and the “pRB (%)” value stood at 11%.

Consider “RVPSTSSVPTGQSAISTLYL (Non-cyclic GFR-binding peptide) [SEQ ID NO: 202]”, for which the “P53 (%)” value turned out to be 25% and the “pRB (%)” value is recorded as 10%.

With “GIPEPSSAPTELSATSILYY (Non-cyclic GFR-binding peptide) [SEQ ID NO: 204]”, the “P53 (%)” value was 33% and the “pRB (%)” value was found to be 16%.

For “GIPEPSSAPVDLKPLSTLYV (Non-cyclic GFR-binding peptide) [SEQ ID NO: 206]”, the “P53 (%)” value is on record as 32% and the “pRB (%)” value stood at 12%.

In the case of “AASKASSVPQEEEPLPMVYY (Non-cyclic GFR-binding peptide) [SEQ ID NO: 207]”, the “P53 (%)” value is given as 24% and the “pRB (%)” value came to 17%.

As for “RVPSTSSAPTKMNAISMLYF (Non-cyclic GFR-binding peptide) [SEQ ID NO: 203]”, the “P53 (%)” value was found to be 31% and the “pRB (%)” value is 9%.

These data come from patent publication US20220273759A1, “PHARMACEUTICAL ASSOCIATION FOR CONVERTING A NEOPLASTIC CELL INTO A NON-NEOPLASTIC CELL AND USES THEREOF” (HISTIDE AG, priority 2015, published 2022).
